The assay addresses T1, Fc control (Fc fusion partner alone) (human, UniProt P01857-1 100-330 = IgG part, limits assumed).
T1 construct: domain: Fc; Control protein, 'prepared as described previously'
Put plainly: in vivo homing; anti-human Fc immunofluorescence on frozen sections of urethane-induced mouse lung tumors, 2 h after i.p. injection. The protocol:
First, we tested if systemically administered ephrin-A1-Fc could home to urethane-induced lung tumors that overexpress EphA2. Lung tumors were induced in wild type mice with urethane. Twenty-five weeks later, mice were injected i.p. with 5 μg/g ephrin-A1-Fc. Fc fusion partner alone was used as control. Two hours after injection, mice were sacrificed, and tumors were dissected out; frozen sections were subject to immunofluorescence staining to detect whether there was a selective homing of ephrin-A1-Fc to tumor tissues relative to control Fc. […] Both FITC-conjugated donkey anti-Fc and Texas-Red-conjugated goat anti-human Fc antibodies yielded similar patterns of selective tumor homing.

B1: EphA2 kinase of mouse (urethane-induced lung tumors, primary keratinocytes, MEF, mouse lung tumor cell lines) (receptor, UniProt Q03145 26-977, looked up)
chain: KEVVLLDFAAMKGELGWLTHPYGKGWDLMQNIMDDMPIYMYSVCNVVSGDQDNWLRTNWVYREEAERIFIELKFTVRDCNSFPGGASSCKETFNLYYAESDVDYGTNFQKRQFTKIDTIAPDEITVSSDFEARNVKLNVEERMVGPLTRKGFYLAFQDIGACVALLSVRVYYKKCPEMLQSLARFPETIAVAVSDTQPLATVAGTCVDHAVVPYGGEGPLMHCTVDGEWLVPIGQCLCQEGYEKVEDACRACSPGFFKSEASESPCLECPEHTLPSTEGATSCQCEEGYFRAPEDPLSMSCTRPPSAPNYLTAIGMGAKVELRWTAPKDTGGRQDIVYSVTCEQCWPESGECGPCEASVRYSEPPHALTRTSVTVSDLEPHMNYTFAVEARNGVSGLVTSRSFRTASVSINQTEPPKVRLEDRSTTSLSVTWSIPVSQQSRVWKYEVTYRKKGDANSYNVRRTEGFSVTLDDLAPDTTYLVQVQALTQEGQGAGSKVHEFQTLSTEGSANMAVIGGVAVGVVLLLVLAGVGLFIHRRRRNLRARQSSEDVRFSKSEQLKPLKTYVDPHTYEDPNQAVLKFTTEIHPSCVARQKVIGAGEFGEVYKGTLKASSGKKEIPVAIKTLKAGYTEKQRVDFLSEASIMGQFSHHNIIRLEGVVSKYKPMMIITEYMENGALDKFLREKDGEFSVLQLVGMLRGIASGMKYLANMNYVHRDLAARNILVNSNLVCKVSDFGLSRVLEDDPEATYTTSGGKIPIRWTAPEAISYRKFTSASDVWSYGIVMWEVMTYGERPYWELSNHEVMKAINDGFRLPTPMDCPSAIYQLMMQCWQQERSRRPKFADIVSILDKLIRAPDSLKTLADFDPRVSIRLPSTSGSEGVPFRTVSEWLESIKMQQYTEHFMVAGYTAIEKVVQMSNEDIKRIGVRLPGHQKRIAYSLLGLKDQVNTVGIPI
notes: whole, on cells
Regarding B1, the binding result is given as “no binding (tested: 2.5 µg/ml Fc control (i.p.))”.
